The source of these data is publication PMC2649980 (Proteins, 2009).

One may read the stoichiometry N as a count of units in the complex or per binding partner.

This data set deals with the molecule itself. Briefly: SEC.

B1: D355R TRβ LBD (human thyroid hormone receptor beta ligand binding domain, a.a. 209-461, D355R), TRIAC-bound (domain or fragment, UniProt P10828 209-461, looked up)
chain: GHKPEPTDEEWELIKTVTEAHVATNAQGSHWKQKRKFLPEDIGQAPIVNAPEGGKVDLEAFSHFTKIITPAITRVVDFAKKLPMFCELPCEDQIILLKGCCMEIMSLRAAVRYDPESETLTLNGEMAVTRGQLKNGGLGVVSDAIFRLGMSLSSFNLDDTEVALLQAVLLMSSDRPGLACVERIEKYQDSFLLAFEHYINYRKHHVTHFWPKLLMKVTDLRMIGACHASRFLHMKVECPTELFPPLFLEVFED
For B1, the “stoichiometry N” value was determined as 2.
